According to publication PMC2647743 (Bioconjugate chemistry, 2008):
*: point of attachment. DOTA = O=C(O)CN1CCN(CC(=O)O)CCN(CC(=O)*)CCN(CC(=O)O)CC1; Aoc = NCCCCCCCC(=O)O

Target: BB2 receptor (gastrin-releasing peptide receptor) (human (endogenous in PC-3), UniProt P30550 1-384)
Assay: radioligand binding

Chain of BB2 receptor (gastrin-releasing peptide receptor) (P30550 whole entry): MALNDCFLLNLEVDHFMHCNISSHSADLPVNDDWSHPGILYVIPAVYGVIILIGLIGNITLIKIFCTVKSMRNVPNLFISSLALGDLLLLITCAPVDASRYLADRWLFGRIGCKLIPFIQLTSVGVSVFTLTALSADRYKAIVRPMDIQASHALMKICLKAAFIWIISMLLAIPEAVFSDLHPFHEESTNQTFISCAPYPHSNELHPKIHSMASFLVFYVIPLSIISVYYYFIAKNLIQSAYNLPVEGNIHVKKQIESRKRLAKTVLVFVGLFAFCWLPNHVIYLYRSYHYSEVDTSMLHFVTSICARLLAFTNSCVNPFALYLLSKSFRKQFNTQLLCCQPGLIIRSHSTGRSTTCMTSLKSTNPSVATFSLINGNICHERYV

B1: DOTA-8-AOC-NONSENSE (peptide)
peptide: {DOTA-Aoc}-HMGWLAQV-NH2
SMILES: CSCC[C@H](NC(=O)[C@H](Cc1c[nH]cn1)NC(=O)CCCCCCCNC(=O)CN1CCN(CC(=O)O)CCN(CC(=O)O)CCN(CC(=O)O)CC1)C(=O)NCC(=O)N[C@@H](Cc1c[nH]c2ccccc12)C(=O)N[C@@H](CC(C)C)C(=O)N[C@@H](C)C(=O)N[C@@H](CCC(N)=O)C(=O)N[C@H](C(N)=O)C(C)C
IC50: > 10 µM

B2: In-DOTA-8-AOC-NONSENSE (peptide)
peptide: {DOTA-Aoc}-HMGWLAQV-NH2
modifications: also: In complex of DOTA
IC50: > 10 µM
